Measurements from patent publication US20140206607A1 (INDIANA UNIVERSITY RESEARCH AND TECHNOLOGY, published 2014).
Numbered stars: 1 amine (or outer) side, 2 acyl side, 3 side chain; on linkers, the order of the positions; unused ones are H or OH. Square brackets hold non-standard residues; d marks the D form. Side chains are listed from the residue outwards. Ends that are not written are not given here. * marks the point of attachment. 40K‑TE PEG = 40 kDa PEG covalently bound via thioether, formed by reaction of the free thiol of the peptide (Cys side chain) with an iodoacetic-functionalized PEG; γGlu = O=C(O)[C@H](CCC(=O)[*:2])N[*:1]; Palmitoyl = CCCCCCCCCCCCCCCC(=O)*; Aib = CC(C)(N)C(=O)O

Tests used:
Experiment in all cases: cell-based or functional assay
glucagon receptor = glucagon receptor (UniProt P47871 26-477, limits assumed)
glucagon receptor, sequence (P47871 26-477 limits assumed): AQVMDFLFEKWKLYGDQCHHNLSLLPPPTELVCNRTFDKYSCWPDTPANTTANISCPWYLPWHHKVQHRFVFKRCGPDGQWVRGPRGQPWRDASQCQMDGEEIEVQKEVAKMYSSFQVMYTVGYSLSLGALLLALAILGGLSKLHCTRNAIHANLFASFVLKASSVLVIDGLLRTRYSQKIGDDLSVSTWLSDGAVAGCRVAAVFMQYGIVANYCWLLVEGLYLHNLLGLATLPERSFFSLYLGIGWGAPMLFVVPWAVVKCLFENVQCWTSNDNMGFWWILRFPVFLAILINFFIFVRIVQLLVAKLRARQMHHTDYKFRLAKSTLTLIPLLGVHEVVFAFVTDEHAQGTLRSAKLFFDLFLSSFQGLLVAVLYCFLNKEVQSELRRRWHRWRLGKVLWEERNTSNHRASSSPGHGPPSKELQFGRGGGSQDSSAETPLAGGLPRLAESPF

GIP receptor = target: T1, GIP receptor (UniProt P48546 22-466)
T1 sequence (looked up): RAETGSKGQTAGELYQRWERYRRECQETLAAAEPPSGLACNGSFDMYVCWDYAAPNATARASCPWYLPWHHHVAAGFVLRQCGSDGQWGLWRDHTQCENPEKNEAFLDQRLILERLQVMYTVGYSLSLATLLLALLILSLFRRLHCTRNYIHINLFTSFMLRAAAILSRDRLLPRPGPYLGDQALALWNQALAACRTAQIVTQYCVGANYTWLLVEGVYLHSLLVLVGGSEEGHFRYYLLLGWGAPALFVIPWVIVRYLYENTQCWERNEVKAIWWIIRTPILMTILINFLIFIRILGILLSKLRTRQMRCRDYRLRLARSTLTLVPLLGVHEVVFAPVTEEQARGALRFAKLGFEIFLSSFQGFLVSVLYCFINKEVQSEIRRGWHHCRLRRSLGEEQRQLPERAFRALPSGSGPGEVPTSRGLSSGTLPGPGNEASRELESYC

GLP-1 receptor = GLP-1 receptor (UniProt P43220 24-463, limits assumed)

## H[Aib]QGTFTSDYSKYLDEKRA[Aib]EFVC(40K‑TE PEG)WLMDT-NH2 [peptide of SEQ ID NO: 15]
Glucagon receptor
  EC50 (nM) at glucagon receptor: 1.1 nM
GIP receptor
  EC50 (nM) at GIP receptor: 316 nM
GLP-1 receptor
  EC50 (nM) at GLP-1 receptor: 0.071 nM

B1: peptide of SEQ ID NO: 37 (peptide)
peptide: H[Aib]QGTFTSDK([γGlu-γGlu-Palmitoyl])SKYLD[Aib]RAAQDFVQWLMKTK[dE]-OH
modifications: N-terminus assumed
SMILES: CCCCCCCCCCCCCCCC(=O)N[C@@H](CCC(=O)N[C@@H](CCC(=O)NCCCC[C@H](NC(=O)[C@H](CC(=O)O)NC(=O)[C@H](CO)NC(=O)[C@@H](NC(=O)[C@H](Cc1ccccc1)NC(=O)[C@@H](NC(=O)CNC(=O)[C@H](CCC(N)=O)NC(=O)C(C)(C)NC(=O)[C@@H](N)Cc1c[nH]cn1)[C@@H](C)O)[C@@H](C)O)C(=O)N[C@@H](CO)C(=O)N[C@@H](CCCCN)C(=O)N[C@@H](Cc1ccc(O)cc1)C(=O)N[C@@H](CC(C)C)C(=O)N[C@@H](CC(=O)O)C(=O)NC(C)(C)C(=O)N[C@@H](CCCNC(=N)N)C(=O)N[C@@H](C)C(=O)N[C@@H](C)C(=O)N[C@@H](CCC(N)=O)C(=O)N[C@@H](CC(=O)O)C(=O)N[C@@H](Cc1ccccc1)C(=O)N[C@H](C(=O)N[C@@H](CCC(N)=O)C(=O)N[C@@H](Cc1c[nH]c2ccccc12)C(=O)N[C@@H](CC(C)C)C(=O)N[C@@H](CCSC)C(=O)N[C@@H](CCCCN)C(=O)N[C@H](C(=O)N[C@@H](CCCCN)C(=O)N[C@H](CCC(=O)O)C(=O)O)[C@@H](C)O)C(C)C)C(=O)O)C(=O)O
Glucagon receptor
  EC50 (nM) at glucagon receptor: 0.018 nM
GIP receptor
  EC50 (nM) at GIP receptor: 3.3 nM
GLP-1 receptor
  EC50 (nM) at GLP-1 receptor: 0.016 nM
